B1: S. gordonii SecA2 with a C-terminal His6 tag (enzyme)
chain: MVKNFFHIRRLKKILAKIKSFEKEMSSLSDLDLQKKTDEFKKRLADGENLDQLLPEAYAVVREVDKRILGLFPYDVQVMGAIVLHEGNIAEMATGEGKTLTATMPLYLNALSGQGAMLVTPNSYLALRDAKEMGPVYRFLGLTIETAVRADESKPLETKEKRRIYQADIIYTTNSALGFDYLIENLAENKKNQFLREFNYVIIDEIDSILLDSAQTPLIISGAPRVQSNFYDMMNTLVQTLYEDEDYCYDDEKNEVWLTQKGIRAAESFLGLNHLFSKENQELVRHLNLALRAHMVYKKDQDYVVRQSENEAEVVLLDRATGRLMELTRLQGGQHQAIEAKEHVKLTQETRAMASITYQNLFKLFRKLSGMTGTGKVVESEFLETYSMSVVKIPTNCPVIRRDYPDQIYQTLPEKVFASLDEVKHYHAKGNPLLIFTGSVEMSEIYSSLLLREGIAHNLLNANNVAREAQMIAESGQLGAVTVATSMAGRGTDIKLGPGVADLGGLVVIGTERMENHRIDLQIRGRSGRQGDPGISKFFISLEDDLLKKWGPDWIKNFYRDYSPEDFKNNPILLKQRRFKKLVSKAQKASEGNAKLSRRLTLEYAQSMKIQRELTYAERNRLLEDTNEMEEEINRVIEYVIKQVAYEQSFENRADFYRFILHHFSNRAERIPQEFDIHSPKEVSHLLQAIAEQELLAKKSYLKSDKLYSQFQRLAILKAIDENWVEQVDYLQQLKSALSGFHTSNKKPIVEYYQEAYDGFEYMKERMKHQIVKNLLMSELALNPKGEVVMYFP

Biological target: T1, S. gordonii SecY2-Asp4-Asp5 complex (S. gordonii) (UniProt A8AWV0)
T1 sequence 1: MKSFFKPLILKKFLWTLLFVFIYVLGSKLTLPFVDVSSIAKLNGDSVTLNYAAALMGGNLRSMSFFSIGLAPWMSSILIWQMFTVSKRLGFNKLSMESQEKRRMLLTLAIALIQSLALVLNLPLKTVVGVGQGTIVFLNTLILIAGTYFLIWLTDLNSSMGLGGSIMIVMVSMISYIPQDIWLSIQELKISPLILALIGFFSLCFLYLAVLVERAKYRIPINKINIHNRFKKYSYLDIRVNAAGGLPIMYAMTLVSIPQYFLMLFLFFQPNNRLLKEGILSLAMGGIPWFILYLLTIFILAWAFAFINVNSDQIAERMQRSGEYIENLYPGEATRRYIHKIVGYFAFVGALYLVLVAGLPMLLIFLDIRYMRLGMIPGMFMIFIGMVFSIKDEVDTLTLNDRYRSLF
T1 sequence 2: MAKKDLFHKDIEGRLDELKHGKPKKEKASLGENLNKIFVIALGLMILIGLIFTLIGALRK
T1 sequence 3: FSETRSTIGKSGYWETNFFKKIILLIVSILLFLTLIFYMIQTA

| Molecule | steady-state ATPase activity of 0.3 uM E. coli SecA on addition of 0.46 uM SecY2-Asp4-Asp5 in proteoliposomes, 25 C (SecA alone ~0.02 s^-1) | steady-state ATPase activity of 0.3 uM S. gordonii SecA2 on addition of 0.46 uM SecY2-Asp4-Asp5 in proteoliposomes, 25 C (SecA2 alone ~0.01 s^-1; 4-fold increase) |
| --- | --- | --- |
| E. coli SecA (from UniProt P10408 1-901) (enzyme) | 0.072 s⁻¹ |  |
| B1 |  | 0.044 s⁻¹ |
